Patent publication US20190177423A1

Tests used:
[1] = target: FcγRIIIa(V158) (Sino Biological Inc, 10389-H08C1) (UniProt P08637); test: Binding ELISA on FcγRIIIa(V158); relative to MIL62 as 100%
[2] = target: FcγRIIIa(V158) (Sino Biological Inc, 10389-H08C1) (UniProt P08637); test: Binding ELISA: FcγRIIIa captured on anti-His coated plate; IgG pre-complexed with goat F(ab')2 anti-human-κ (1:2 w/w); HRP anti-human IgG F(ab')2 detection

Chain of FcγRIIIa(V158) (Sino Biological Inc, 10389-H08C1) (P08637 17-208 F176V): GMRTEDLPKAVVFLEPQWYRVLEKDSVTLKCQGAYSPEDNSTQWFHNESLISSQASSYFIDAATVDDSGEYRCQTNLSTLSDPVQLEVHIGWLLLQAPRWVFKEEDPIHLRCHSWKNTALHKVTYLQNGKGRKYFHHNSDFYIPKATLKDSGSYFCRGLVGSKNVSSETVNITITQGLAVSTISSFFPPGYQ

- Relative Bioactivity (%) [1]: 26.8%
- EC50 [2]: 0.194 µg/mL
Substance: RITUXAN (rituximab) (antibody)
